This assay concerns the target T1, murine ELMO2 full-length, wild type (mouse, UniProt Q8BHL5 1-732).
T1 construct: ELMO2, murine cDNA cloned into pGEX4T1; called full-length in the ITC methods; Thrombin was added to the glutathione eluates overnight before size exclusion; also called ELMO2 WT; WT ELMO2; source: E. coli BL21 codon+, purified (glutathione resin, thrombin, S75 size exclusion)
T1 sequence (looked up): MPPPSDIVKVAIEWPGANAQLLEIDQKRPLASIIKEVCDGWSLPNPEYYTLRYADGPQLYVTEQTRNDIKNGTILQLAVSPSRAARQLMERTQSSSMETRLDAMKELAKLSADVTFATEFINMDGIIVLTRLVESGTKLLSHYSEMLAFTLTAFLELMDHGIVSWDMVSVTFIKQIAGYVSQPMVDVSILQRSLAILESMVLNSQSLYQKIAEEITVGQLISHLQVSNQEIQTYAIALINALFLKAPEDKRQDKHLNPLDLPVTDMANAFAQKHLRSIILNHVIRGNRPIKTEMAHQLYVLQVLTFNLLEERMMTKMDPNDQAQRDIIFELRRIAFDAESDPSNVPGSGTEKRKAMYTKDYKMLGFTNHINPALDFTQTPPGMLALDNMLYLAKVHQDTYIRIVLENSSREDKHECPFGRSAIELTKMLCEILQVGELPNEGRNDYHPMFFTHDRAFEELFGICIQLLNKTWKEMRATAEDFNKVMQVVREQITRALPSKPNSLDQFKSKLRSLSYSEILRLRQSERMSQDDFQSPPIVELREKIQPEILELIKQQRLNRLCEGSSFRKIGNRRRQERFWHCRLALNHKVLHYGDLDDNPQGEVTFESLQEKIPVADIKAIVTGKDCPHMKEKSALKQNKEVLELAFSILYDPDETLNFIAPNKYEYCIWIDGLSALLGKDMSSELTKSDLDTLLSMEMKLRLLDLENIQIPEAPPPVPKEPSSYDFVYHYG
In words: ITC; 500 μM RHOG titrated into 40 μM Elmo2 full-length (WT or L43A); MicroCal ITC200, 25 °C; 20 mM Tris pH 7.5, 100 mM NaCl, 5 mM MgCl2, 1 mM DTT; one-site binding model. To be noted: both partners purified.

In paper PMC9674853, “Biasing the conformation of ELMO2 reveals that myoblast fusion can be exploited to improve muscle regeneration” (Nature Communications, 2022) one finds Kd data, which are given here for one molecule.

B1: human RHOG (residues 1-179) (domain or fragment)
chain: not shown
notes: RHOG, human, residues 1-179, cloned into pDEST17 with a thrombin cleavage site between the 6xHIS-tag and the GTPase; For NMR uniformly 15N-labelled (M9 medium with 15NH4Cl) and loaded with GMPPNP; For ITC made in LB; also called RHOG-GMPPNP; HIS-RHOG; source: E. coli BL21 codon+, purified (Ni-NTA, thrombin cleavage, S75 size exclusion)
One may read the Kd as a measure of binding affinity in units of concentration. Low readings indicate higher affinity, high ones lower affinity. Molecule B1 had a Kd of 10.3 µM.
